The values that follow come from patent US20240226321A1 (ANJARIUM BIOSCIENCES, published 2024).

This assay concerns the target T1, FcRn of the Lumit FcRn Binding Immunoassay (Promega) (UniProt P55899 24-297; P61769 21-119, limits assumed).
T1 construct: Bought kit reagent ('split FcRn/Tracer'); also called split FcRn
As to the kind of experiment: Lumit FcRn Binding Immunoassay (Promega), serial dilution of EVs competing with the kit's Tracer for FcRn, luminescence as fraction of max signal. The method, then:
A Lumit™ FcRn Binding Immunoassay (Promega) assay was performed with purified EVs described in Example 1 and native Hek293 EVs. […] Detection reagent was added and luminescence was detected on a plate reader.

T1 sequence (P55899 24-297 limits assumed, form in doubt, chain 1 of 2): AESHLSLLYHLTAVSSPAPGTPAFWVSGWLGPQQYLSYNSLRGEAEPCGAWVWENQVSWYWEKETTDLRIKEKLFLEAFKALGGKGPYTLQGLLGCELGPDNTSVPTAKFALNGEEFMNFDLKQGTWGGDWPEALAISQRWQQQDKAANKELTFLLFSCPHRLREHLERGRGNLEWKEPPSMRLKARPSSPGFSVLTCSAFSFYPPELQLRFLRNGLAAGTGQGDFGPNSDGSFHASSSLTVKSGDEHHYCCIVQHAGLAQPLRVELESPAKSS
T1 sequence (P61769 21-119 limits assumed, form in doubt, chain 2 of 2): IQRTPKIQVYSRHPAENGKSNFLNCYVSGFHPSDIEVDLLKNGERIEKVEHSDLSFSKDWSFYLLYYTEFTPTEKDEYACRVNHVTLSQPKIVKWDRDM

B1: targeting monobody-linker1-modified monomeric Fc-linker2-EphB2 scaffold-linker3-turboluc fusion protein, displayed on purified EVs (Fc fusion)
chain: VSDVPRDLEVVAATPTSLLISWYYPFCAFYYRITYGETGGNSPVQEFTVPRSPDTATISGLKPGVDYTITVYAVTCLGSYSRPISINYRTGGGGSGGGGSGGAPEAAGGPSVFLFPPKPKDTLMISRTPEVTCVVVDVSHEDPEVKFNWYVDGVEVHNAKTKPREEQYNSTYRVVSVLTVLHQDWLNGKEYKCKVSNKALGAPIEKTISKAKGQPREPQVYTKPPSRDELTKNQVSLSCLVKGFYPSDIAVEWESNGQPENNYKTTVPVLDSDGSFRLASYLTVDKSRWQQGNVFSCSVMHEALHNHYTQKSLSLSPGGGSGGGSGGGSGGGSRKCPRIIQNGAIFQETLSGAESTSLVAARGSCIANAEEVDVPIKLYCNGDGEWLVPIGRCMCKAGFEAVENGTVCRGCPSGTFKANQGDEACTHCPINSRTTSEGATNCVCRNGYYRADLDPLDMPCTTIPSAPQAVISSVNETSLMLEWTPPRDSGGREDAVYNIICKSCGSGRGACTRCGDNVQYAPRQLGLTEPRIYASDLLAHTQYTFEIQAVNGVTDQSPFSPQFASVNITTNQAAPSAVSIMHQVSRTVDSITLSWSQPDQPNGVILDYELQYYEKELSEYNATAIKSPTNTVTVQGLKAGAIYVFQVRARTVAGYGRYSGKMYFQTMTEAEYQTEIQEKLPLIIGSSAAGLVFLIAVVVISIVCNRRGFERADSEYTDKLQHYTSGHMTPGMKIYIDPFTYEDPNEAVREFAKEIDISCVKIEQVIGAGEFGEVCSGHLKLPGKREIFVAIKTLKSGYTEKQRRDFLSEASIMGQFDHPNVIHLEGVVTKSTPVMIITEFMENGSLDSFLRQNDGQFTVIQLVGMLRGIAAGMKYLADMNYVHRDLAARNILVNSNLVCKVSDFGLSRFLEDDTSDPTYTSALGGKIPIRWTAPEAIQYRKFTSASDVWSYGIVMWEVMSFGERPYWDMTNQDVINAIEQDYRLPPPMDCPSALHQLMLDCWQKDRNHRPKFGQIVNTLDKMIRNPNSLKAMAPLSSGINLPLGGGEAEAERGKLPGKKLPLEVLIELEANARKAGCTRGCLICLSKIKCTAKMKKYIPGRCADYGGDKKTGQAGIVGAIVDIPEISGFKEMEPMEQFIAQVDRCADCTTGCLKGLANVKCSDLLKKWLPGRCATFADKIQSEVDNIKGLAGD
notes: also called EVs expressing the modified Fc domain
For B1, the “IC50 (read off the curve)” value is about 0.2 nM.
